Measurements published in patent US20160178646A1, “METHODS FOR DETECTING AMYLOID BETA AMYLOIDOSIS” (Washington University, priority 2011, published 2016).

Assay: Aβ SILK tracer kinetics in CSF with compartmental model of Aβ turnover
Format: in vivo, human
Conditions: for FTR faster: cognitively normal, amyloid positive group compared to cognitively normal, amyloid negative group; for FTR, Mean(95% confidence limits) / kex42 (Aβ42 exchange rate), Mean(95% confidence limits): multivariate ANOVA; for FTR (fractional turnover rate): mean ± StDev
Text: These human studies took place at the Washington University School of Medicine in St. Louis and were approved by the Washington University Human Studies Committee and the General Clinical Research Center (GCRC) Advisory Committee. All participants completed informed written consent. One hundred and one participants were enrolled for these studies comprising 57 men (aged from 60.4 to 87.7) and 44 women (aged 63.8 to 85.2). Deposition of amyloid plaques was quantified in 62 subjects based on the mean cortical binding potential (MCBP) score of [^11C]PIB-PET.^15 PET PIB scans were performed within 3 years before or after the SILK tracer study date. Cognitive status using the Clinical Dementia Rating sum of boxes score (CDR-SB16) and ApoE genotyping^33 was assessed in all subjects.
The procedure for stable isotope amino acid tracer administration and sample collection was previously described.^12 Briefly, intravenous and intrathecal lumbar catheters were placed between 7:00 AM and 9:00 AM, and the collection of samples was started between 8:00 AM and 10:00 AM. After initial CSF and plasma baseline samples were collected, each participant was infused with a bolus of 3 mg/kg L-[U-^13C6] leucine for 10 minutes, followed by a constant infusion (2 mg/kg/h) for the remainder of the first 9 hours. Blood samples (12 mL) were obtained hourly for the first 16 h and every other hour thereafter. CSF samples (6 mL) were obtained hourly throughout each study. Aliquots of plasma and CSF were frozen at −80° C. immediately in 1 mL polypropylene tubes after being collected for subsequent determination of plasma leucine and CSF Aβ isoform peptide enrichment. The sample collection for one subject was truncated at 4 hours; this subject was excluded from the analysis.
All samples were processed and measured in a blinded fashion with data results and individual analysis completed before unblinding to participant's disease state. The procedure for sample preparation, data acquisition and processing were previously described.^34 Briefly, 1 mL of CSF from each hour of collection and media standards were thawed. Aβ was purified and processed for mass spectrometry by immunoprecipitation with a mid-domain binding antibody HJ5.1 (Aβ amino acids 13 to 28). […] The purified Aβ was then digested with Lys-N (Metalloendopeptidase) and isotopic enrichment of Aβ c-terminal isoform specific peptides (Aβ29-38, Aβ29-40, and Aβ29-42) were measured using a nano-liquid chromatography (NanoLC-2D-Ultra system (Eksigent Technologies, CA USA)) coupled to a TSQ Vantage triple quadrupole mass spectrometer (ThermoScientific, San Jose USA) that was equipped with a column-heating nanospray source (Phoenix S&T, Chester Pa. USA). Xcalibur V2.1 was used to collect and quantify the mass spectrometry data for SILK. […] Samples for 100 subjects (including the prior 24 subjects) were analyzed utilizing the more specific and sensitive method34 in this study.
The time and magnitude of the peak maximum was determined by fitting a 2nd order curve to enrichment vs. time over an 11-h interval centered at the approximate peak maximum. The compartmental model previously developed and applied to Autosomal Dominant AD participants was used to determine model-dependent parameters of Aβ turnover kinetics (FIG. 18).^14 Modeling was performed using the Population Kinetics (PopKinetics, version 1.0.1) companion application to the SAAM II modeling program (version 1.2.1, SAAM Institute, University of Washington, Seattle). PopKinetics performed an iterative two-stage approach to optimize kinetic parameters to individual participants as well as the population as a whole by including a term that represents the population mean and standard deviation for each adjustable parameter such that variability of the kinetic parameters across the population is minimized. […] The model consists of a plasma leucine pool, a subsystem for production of Aβ through APP and C99, turnover of Aβ, and transport of Aβ to CSF.

| Substance | FTR faster [%] | FTR, Mean(95% confidence limits) (CDR = 0 Amyloid+) | FTR, Mean(95% confidence limits) (CDR = 0 Amyloid−) | FTR, Mean(95% confidence limits) (CDR > 0 Amyloid+) | FTR, Mean(95% confidence limits) (CDR > 0 Amyloid−) | mean FTR (not significantly different by univariate analysis of amyloid status) | correlation between annualized change in fibrillar amyloid by PET PIB and FTR Aβ42 (R) (Amyloid positive and Amyloid negative participants) | exchange rate constant (amyloid negative participants) [pools/h] | FTR (fractional turnover rate) (amyloid negative participants) [pools/h] | exchange rate constant (amyloid positive participants) [pools/h] | FTR (fractional turnover rate) (amyloid positive participants) [pools/h] | FTR (clinically normal amyloid negative group) [pool/h] | FTR (clinically normal amyloid positive group) [pool/h] | deposition rate constant (into amyloid plaques) (difference of FTR, clinically normal amyloid positive minus negative) [pool/h] | increase in exchange of newly synthesized soluble Aβ42 (in amyloidosis) | kex42 (Aβ42 exchange rate), Mean(95% confidence limits) (Amyloid+) | FTR, Mean(95% confidence limits) (Amyloid+ participants, CSF SILK) | kex42 (Aβ42 exchange rate), Mean(95% confidence limits) (Amyloid−) | FTR, Mean(95% confidence limits) (Amyloid− participants, CSF SILK) |
| --- | --- | --- | --- | --- | --- | --- | --- | --- | --- | --- | --- | --- | --- | --- | --- | --- | --- | --- | --- |
| Aβ40: naturally occurring amyloid-beta isoform Aβx-40, where x is any N-terminal cleavage site; endogenous, measured as biomarker | 17 | CDR = 0 Amyloid+ 0.096(0.083-0.109) | CDR = 0 Amyloid− 0.082(0.068-0.096) | CDR > 0 Amyloid+ 0.074(0.067-0.081) | CDR > 0 Amyloid− 0.094(0.083-0.106) | 0.082±0.022 |  |  |  |  |  |  |  |  |  |  |  |  |  |
| Aβ42: naturally occurring amyloid-beta isoform Aβx-42, where x is any N-terminal cleavage site; endogenous, measured as biomarker | 57 |  |  |  |  |  | 0.56 | 0.006±0.032 | 0.094±0.031 | 0.049±0.054 | 0.112±0.035 | 0.091 | 0.143 | 0.052 | ten-fold increase | Amyloid+ 0.059(0.042-0.076) | Amyloid+ 0.124 (0.112-0.135) | Amyloid− 0.006(−0.016-0.029) | Amyloid− 0.101 (0.086-0.115) |
